What all share (experiment): cell-based or functional assay
For experiment [1], the target named is T1, purified insulin degrading enzyme (IDE) (UniProt P14735).
T1 sequence (looked up): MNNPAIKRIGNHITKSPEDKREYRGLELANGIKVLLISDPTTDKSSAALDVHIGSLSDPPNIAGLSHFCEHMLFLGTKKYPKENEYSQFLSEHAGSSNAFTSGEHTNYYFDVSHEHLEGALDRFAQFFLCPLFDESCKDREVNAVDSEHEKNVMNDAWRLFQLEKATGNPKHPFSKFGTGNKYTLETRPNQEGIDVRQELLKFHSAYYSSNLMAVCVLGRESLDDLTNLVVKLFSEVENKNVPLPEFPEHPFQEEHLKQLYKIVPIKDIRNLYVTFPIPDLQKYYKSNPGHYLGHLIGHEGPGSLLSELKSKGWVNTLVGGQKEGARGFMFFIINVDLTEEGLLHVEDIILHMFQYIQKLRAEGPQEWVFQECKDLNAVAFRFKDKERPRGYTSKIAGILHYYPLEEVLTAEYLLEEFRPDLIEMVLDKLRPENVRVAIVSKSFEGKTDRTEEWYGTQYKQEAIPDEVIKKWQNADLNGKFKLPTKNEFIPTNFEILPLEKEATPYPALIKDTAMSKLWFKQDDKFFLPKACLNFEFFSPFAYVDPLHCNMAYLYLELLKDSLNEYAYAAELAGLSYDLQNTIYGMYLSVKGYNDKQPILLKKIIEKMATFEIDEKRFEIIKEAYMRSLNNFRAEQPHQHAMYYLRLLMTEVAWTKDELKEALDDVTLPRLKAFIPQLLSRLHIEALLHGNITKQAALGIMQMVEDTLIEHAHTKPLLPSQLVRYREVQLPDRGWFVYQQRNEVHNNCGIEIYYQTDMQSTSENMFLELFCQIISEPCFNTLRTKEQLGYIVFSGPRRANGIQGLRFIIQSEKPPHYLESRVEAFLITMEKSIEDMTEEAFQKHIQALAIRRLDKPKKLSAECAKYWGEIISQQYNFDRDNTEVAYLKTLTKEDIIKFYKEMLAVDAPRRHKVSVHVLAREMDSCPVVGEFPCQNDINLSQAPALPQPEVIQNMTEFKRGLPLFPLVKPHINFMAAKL

Experiment [2] has as its target human natriuretic peptide receptor B (NPR-B) (human) (UniProt P20594).
Experiment [3] concerns the target purified neutral endopeptidase (NEP) (UniProt P08473).

human natriuretic peptide receptor B (NPR-B) (human), sequence (P20594 23-1047): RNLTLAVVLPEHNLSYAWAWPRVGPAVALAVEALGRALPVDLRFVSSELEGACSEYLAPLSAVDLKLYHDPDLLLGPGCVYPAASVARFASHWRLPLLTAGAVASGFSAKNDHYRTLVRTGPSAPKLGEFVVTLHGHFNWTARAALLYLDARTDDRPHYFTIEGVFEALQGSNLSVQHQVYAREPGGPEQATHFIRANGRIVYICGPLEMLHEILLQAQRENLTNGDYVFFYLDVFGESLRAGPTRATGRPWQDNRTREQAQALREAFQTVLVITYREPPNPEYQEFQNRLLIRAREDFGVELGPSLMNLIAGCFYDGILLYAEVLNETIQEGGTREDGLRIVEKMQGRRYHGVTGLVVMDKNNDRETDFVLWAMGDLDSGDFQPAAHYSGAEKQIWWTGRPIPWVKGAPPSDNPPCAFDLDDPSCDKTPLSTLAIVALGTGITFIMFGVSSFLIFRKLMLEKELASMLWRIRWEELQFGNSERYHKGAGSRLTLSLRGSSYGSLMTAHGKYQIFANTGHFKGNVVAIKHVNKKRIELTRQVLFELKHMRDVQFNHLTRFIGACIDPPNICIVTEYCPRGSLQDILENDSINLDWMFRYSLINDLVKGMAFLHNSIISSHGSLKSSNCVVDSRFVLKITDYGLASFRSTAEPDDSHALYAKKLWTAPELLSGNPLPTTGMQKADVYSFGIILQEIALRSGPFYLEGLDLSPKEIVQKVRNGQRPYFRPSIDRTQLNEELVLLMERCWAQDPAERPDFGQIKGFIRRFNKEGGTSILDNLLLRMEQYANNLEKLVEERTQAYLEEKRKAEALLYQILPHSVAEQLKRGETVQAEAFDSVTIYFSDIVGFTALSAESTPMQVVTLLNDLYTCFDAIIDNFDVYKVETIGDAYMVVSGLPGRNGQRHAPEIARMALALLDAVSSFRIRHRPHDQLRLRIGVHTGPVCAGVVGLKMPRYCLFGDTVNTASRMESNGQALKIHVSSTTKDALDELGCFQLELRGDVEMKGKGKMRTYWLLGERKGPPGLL
purified neutral endopeptidase (NEP), sequence (P08473 52-750 limits assumed): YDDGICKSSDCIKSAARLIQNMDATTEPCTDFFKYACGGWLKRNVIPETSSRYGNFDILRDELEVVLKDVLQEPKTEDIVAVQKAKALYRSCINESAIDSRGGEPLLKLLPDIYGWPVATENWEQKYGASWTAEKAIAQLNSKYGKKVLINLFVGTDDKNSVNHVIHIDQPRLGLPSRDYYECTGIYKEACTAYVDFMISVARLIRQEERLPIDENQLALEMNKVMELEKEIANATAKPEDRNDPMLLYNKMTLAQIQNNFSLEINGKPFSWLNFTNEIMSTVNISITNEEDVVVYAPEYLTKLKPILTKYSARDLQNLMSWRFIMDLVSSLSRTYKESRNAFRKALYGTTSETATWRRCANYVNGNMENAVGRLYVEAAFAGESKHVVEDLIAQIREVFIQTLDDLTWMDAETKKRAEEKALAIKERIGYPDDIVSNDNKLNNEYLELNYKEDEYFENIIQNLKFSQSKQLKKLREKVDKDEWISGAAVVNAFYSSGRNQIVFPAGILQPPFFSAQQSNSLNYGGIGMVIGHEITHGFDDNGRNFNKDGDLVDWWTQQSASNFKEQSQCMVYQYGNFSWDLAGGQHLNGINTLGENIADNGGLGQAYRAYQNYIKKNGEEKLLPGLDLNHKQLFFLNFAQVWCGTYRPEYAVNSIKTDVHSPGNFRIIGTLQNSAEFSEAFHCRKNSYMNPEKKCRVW

B1: human CNP22 (peptide)
peptide: GLSKGCFGLKLDRIGSMSGLGC
In experiment [1], B1 displayed a reduction of ability to generate cGMP (NPRB cells) after 30 min with purified IDE of 64% and a reduction of ability to generate cGMP (NPRB cells) after 120 min with purified IDE of 99%. Besides, in experiment [2], the % Efficacy turned out to be 100%; the EC50 (nM), NPR-B whole cell cGMP assay was determined as 14.7 nM; the EC50 Ratio versus CNP22 was 1; the EC50 on NPR-B (nM), whole cell cGMP assay was found to be 4.87 nM. Besides, in experiment [2], the Rescue Ratio Average is 1 and the Rescue Ratio versus CNP22 turned out to be 1. In experiment [3], this molecule gave a % of control after 240 min (intact peptide by RP-HPLC after incubation with NEP) of 0%, a reduction of ability to generate cGMP (NPRB cells) after 30 min with purified NEP of 50% and a reduction of ability to generate cGMP (NPRB cells) after 120 min with purified NEP of 87%.
